The labels stand for the following.
B1: glmS ribozyme (parent)
chain: AUAAAAGCGCCAGAACUACAGAAAUGUAGUUGACGAGGAGGAGGUUUAUCGAAUUUUCGGCGGAUGCCUCCAAA

Common to all, as to details: with glucosamine-6-phosphate
The variants in series [1] derive from B1. The experiment in a line: self-cleavage kobs at 40 uM GlcN6P; higher = faster cleavage; RNA array. The method, boiled down:
(§1)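 On sequenced MiSeq chips, barcoded ribozyme variants were made in situ by E. coli RNA polymerase and followed at 37 °C through a hybridised Cy3 probe. Glucosamine-6-phosphate was flowed in at 40 μM to 10 mM in HEPES/KCl/Mg(OAc)2 buffer. Exponential fits to normalised per-tile medians gave kobs, and weighted Michaelis–Menten fits gave kcat and KM.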

In series [2] the parent is B1. The experiment in a line: self-cleavage kobs at 160 uM GlcN6P; higher = faster cleavage; RNA array. Put shortly:
as §1

Series [3] covers variants of B1. The series can be described thus: self-cleavage kobs at 640 uM GlcN6P; higher = faster cleavage; RNA array. Put shortly: as §1
Series [4] covers variants of B1. The experiment in a line: self-cleavage kobs at 10000 uM GlcN6P; higher = faster cleavage; RNA array. The method, boiled down:
as §1

Variants of B1 are the subject of series [5]. The series can be described thus: self-cleavage kobs at 2500 uM GlcN6P; higher = faster cleavage; RNA array. The method, boiled down: as §1

± gives the standard error. Variants at the floor of the assay were thinned out. Where only a bound is given, the exact number is not on record here.

In the case of A52G G62C, the “self-cleavage kobs at 40 uM GlcN6P” value with glucosamine-6-phosphate [1] was less than 1e-05 s⁻¹. Further, the “self-cleavage kobs at 160 uM GlcN6P” value with glucosamine-6-phosphate [2] is less than 1e-05 s⁻¹. The “self-cleavage kobs at 640 uM GlcN6P” value in the series with glucosamine-6-phosphate [3] was less than 1e-05 s⁻¹. In the series with glucosamine-6-phosphate [4], the “self-cleavage kobs at 10000 uM GlcN6P” value was less than 1e-05 s⁻¹.

As to C34G G37A G44C C50G A53G G66U, in the series with glucosamine-6-phosphate [1], the “self-cleavage kobs at 40 uM GlcN6P” value was less than 1e-05 s⁻¹. For the same variant, the “self-cleavage kobs at 10000 uM GlcN6P” value with glucosamine-6-phosphate [4] is less than 1e-05 s⁻¹.

As to A12U A42G U47A C68U, the “self-cleavage kobs at 40 uM GlcN6P” value in the series with glucosamine-6-phosphate [1] came to 0.000117 ± 4.6e-05 s⁻¹. Moreover, the “self-cleavage kobs at 10000 uM GlcN6P” value with glucosamine-6-phosphate [4] worked out at 0.00634 ± 0.0021 s⁻¹.

On to A42C C50U U69A, for which, in the series with glucosamine-6-phosphate [1], the “self-cleavage kobs at 40 uM GlcN6P” value is less than 1e-05 s⁻¹. The “self-cleavage kobs at 10000 uM GlcN6P” value with glucosamine-6-phosphate [4] was less than 1e-05 s⁻¹.

As for U56A C70U C71U, in the series with glucosamine-6-phosphate [1], the “self-cleavage kobs at 40 uM GlcN6P” value is 5.46e-05 ± 1.5e-05 s⁻¹. For the same variant, the “self-cleavage kobs at 640 uM GlcN6P” value with glucosamine-6-phosphate [3] was 8.84e-05 ± 1.7e-05 s⁻¹. For the same variant, the “self-cleavage kobs at 2500 uM GlcN6P” value with glucosamine-6-phosphate [5] was found to be 0.000232 ± 5.2e-05 s⁻¹. Further, in the series with glucosamine-6-phosphate [4], the “self-cleavage kobs at 10000 uM GlcN6P” value was 8.85e-05 ± 1.7e-05 s⁻¹.

Consider C11U C34G G41A U47G, for which the “self-cleavage kobs at 40 uM GlcN6P” value with glucosamine-6-phosphate [1] is less than 1e-05 s⁻¹. Besides, the “self-cleavage kobs at 640 uM GlcN6P” value with glucosamine-6-phosphate [3] was less than 1e-05 s⁻¹. Besides, the “self-cleavage kobs at 2500 uM GlcN6P” value with glucosamine-6-phosphate [5] is less than 1e-05 s⁻¹. Also, the “self-cleavage kobs at 10000 uM GlcN6P” value with glucosamine-6-phosphate [4] is less than 1e-05 s⁻¹.

Turning to G51C G60U, the “self-cleavage kobs at 40 uM GlcN6P” value with glucosamine-6-phosphate [1] was less than 1e-05 s⁻¹. Moreover, the “self-cleavage kobs at 160 uM GlcN6P” value with glucosamine-6-phosphate [2] was less than 1e-05 s⁻¹. The “self-cleavage kobs at 640 uM GlcN6P” value with glucosamine-6-phosphate [3] was less than 1e-05 s⁻¹. For the same variant, in the series with glucosamine-6-phosphate [4], the “self-cleavage kobs at 10000 uM GlcN6P” value is less than 1e-05 s⁻¹.

As for U54G G62C, the “self-cleavage kobs at 40 uM GlcN6P” value with glucosamine-6-phosphate [1] was less than 1e-05 s⁻¹. The “self-cleavage kobs at 160 uM GlcN6P” value with glucosamine-6-phosphate [2] is less than 1e-05 s⁻¹. In addition, in the series with glucosamine-6-phosphate [3], the “self-cleavage kobs at 640 uM GlcN6P” value is less than 1e-05 s⁻¹. The “self-cleavage kobs at 2500 uM GlcN6P” value with glucosamine-6-phosphate [5] was less than 1e-05 s⁻¹. Also, in the series with glucosamine-6-phosphate [4], the “self-cleavage kobs at 10000 uM GlcN6P” value is less than 1e-05 s⁻¹.

For C8G G9C U55A, the “self-cleavage kobs at 40 uM GlcN6P” value with glucosamine-6-phosphate [1] is less than 1e-05 s⁻¹. Also, the “self-cleavage kobs at 640 uM GlcN6P” value with glucosamine-6-phosphate [3] was less than 1e-05 s⁻¹. For the same variant, in the series with glucosamine-6-phosphate [5], the “self-cleavage kobs at 2500 uM GlcN6P” value is less than 1e-05 s⁻¹. Besides, in the series with glucosamine-6-phosphate [4], the “self-cleavage kobs at 10000 uM GlcN6P” value was less than 1e-05 s⁻¹.

On to G62A C67U, for which the “self-cleavage kobs at 40 uM GlcN6P” value in the series with glucosamine-6-phosphate [1] is less than 1e-05 s⁻¹. Moreover, in the series with glucosamine-6-phosphate [5], the “self-cleavage kobs at 2500 uM GlcN6P” value is less than 1e-05 s⁻¹. The “self-cleavage kobs at 10000 uM GlcN6P” value with glucosamine-6-phosphate [4] is less than 1e-05 s⁻¹.

Take G7C U31C G43C C50U: in the series with glucosamine-6-phosphate [1], the “self-cleavage kobs at 40 uM GlcN6P” value was less than 1e-05 s⁻¹. In addition, in the series with glucosamine-6-phosphate [2], the “self-cleavage kobs at 160 uM GlcN6P” value is less than 1e-05 s⁻¹. The “self-cleavage kobs at 640 uM GlcN6P” value in the series with glucosamine-6-phosphate [3] is less than 1e-05 s⁻¹. For the same variant, the “self-cleavage kobs at 10000 uM GlcN6P” value with glucosamine-6-phosphate [4] was less than 1e-05 s⁻¹.

As for A6U U55C C71A, the “self-cleavage kobs at 40 uM GlcN6P” value with glucosamine-6-phosphate [1] was less than 1e-05 s⁻¹.

U30G A33C A42C: the “self-cleavage kobs at 40 uM GlcN6P” value with glucosamine-6-phosphate [1] was less than 1e-05 s⁻¹. In addition, in the series with glucosamine-6-phosphate [4], the “self-cleavage kobs at 10000 uM GlcN6P” value is less than 1e-05 s⁻¹.

In the case of G29U U56A, the “self-cleavage kobs at 40 uM GlcN6P” value with glucosamine-6-phosphate [1] was found to be 4.68e-05 ± 1.4e-05 s⁻¹. The “self-cleavage kobs at 160 uM GlcN6P” value with glucosamine-6-phosphate [2] stood at 9.32e-05 ± 2e-05 s⁻¹. In the series with glucosamine-6-phosphate [3], the “self-cleavage kobs at 640 uM GlcN6P” value stood at 0.000211 ± 7e-05 s⁻¹. The “self-cleavage kobs at 10000 uM GlcN6P” value in the series with glucosamine-6-phosphate [4] worked out at 0.00285 ± 0.00045 s⁻¹.

Take A33U A48U: the “self-cleavage kobs at 40 uM GlcN6P” value with glucosamine-6-phosphate [1] was less than 1e-05 s⁻¹. For the same variant, in the series with glucosamine-6-phosphate [2], the “self-cleavage kobs at 160 uM GlcN6P” value is less than 1e-05 s⁻¹. The “self-cleavage kobs at 640 uM GlcN6P” value with glucosamine-6-phosphate [3] was less than 1e-05 s⁻¹. Further, the “self-cleavage kobs at 10000 uM GlcN6P” value with glucosamine-6-phosphate [4] is less than 1e-05 s⁻¹.

In the case of C10U U49C, the “self-cleavage kobs at 40 uM GlcN6P” value with glucosamine-6-phosphate [1] is less than 1e-05 s⁻¹. For the same variant, the “self-cleavage kobs at 640 uM GlcN6P” value with glucosamine-6-phosphate [3] is less than 1e-05 s⁻¹. Further, the “self-cleavage kobs at 2500 uM GlcN6P” value with glucosamine-6-phosphate [5] is less than 1e-05 s⁻¹. The “self-cleavage kobs at 10000 uM GlcN6P” value with glucosamine-6-phosphate [4] is less than 1e-05 s⁻¹.

Turning to C16U U30A C58G A73U, in the series with glucosamine-6-phosphate [1], the “self-cleavage kobs at 40 uM GlcN6P” value was less than 1e-05 s⁻¹.

Take C10U A12U A33U A53G C58U U69G: the “self-cleavage kobs at 40 uM GlcN6P” value with glucosamine-6-phosphate [1] was determined as 9.07e-05 ± 2.5e-05 s⁻¹. Moreover, the “self-cleavage kobs at 160 uM GlcN6P” value with glucosamine-6-phosphate [2] stood at 0.000159 ± 3.3e-05 s⁻¹. The “self-cleavage kobs at 640 uM GlcN6P” value in the series with glucosamine-6-phosphate [3] worked out at 0.000216 ± 5.1e-05 s⁻¹. The “self-cleavage kobs at 2500 uM GlcN6P” value with glucosamine-6-phosphate [5] came to 0.000132 ± 4.1e-05 s⁻¹. In the series with glucosamine-6-phosphate [4], the “self-cleavage kobs at 10000 uM GlcN6P” value is 6.22e-05 ± 1.8e-05 s⁻¹.

In the case of G13C U30C A36G G41C C70A, the “self-cleavage kobs at 40 uM GlcN6P” value with glucosamine-6-phosphate [1] is less than 1e-05 s⁻¹. In the series with glucosamine-6-phosphate [2], the “self-cleavage kobs at 160 uM GlcN6P” value is less than 1e-05 s⁻¹. The “self-cleavage kobs at 640 uM GlcN6P” value in the series with glucosamine-6-phosphate [3] was less than 1e-05 s⁻¹. Moreover, in the series with glucosamine-6-phosphate [5], the “self-cleavage kobs at 2500 uM GlcN6P” value is less than 1e-05 s⁻¹. Further, in the series with glucosamine-6-phosphate [4], the “self-cleavage kobs at 10000 uM GlcN6P” value is less than 1e-05 s⁻¹.

Regarding U45G C58U, the “self-cleavage kobs at 40 uM GlcN6P” value with glucosamine-6-phosphate [1] was less than 1e-05 s⁻¹. In addition, the “self-cleavage kobs at 160 uM GlcN6P” value with glucosamine-6-phosphate [2] is less than 1e-05 s⁻¹.

For the origin of these results see the supplement of paper PMC7125110.
